# Experimental data from patent CN110577600A (SHANGHAI INST MATERIA MEDICA CAS; NANJING LEADS BIOLABS …, dated 2019).
# Molecular target: T1, 重组人GPC3蛋白 (human, UniProt P51654 25-559, limits assumed)
# T1 construct: also called 磷脂酰肌醇聚糖蛋白3
# Experiment: SPR, Biacore X100; antibody captured on goat anti-human Fc gamma CM5 chip, human GPC3 10nM-80nM as analyte, 1:1 Langmuir model
# T1 sequence (P51654 25-559 limits assumed): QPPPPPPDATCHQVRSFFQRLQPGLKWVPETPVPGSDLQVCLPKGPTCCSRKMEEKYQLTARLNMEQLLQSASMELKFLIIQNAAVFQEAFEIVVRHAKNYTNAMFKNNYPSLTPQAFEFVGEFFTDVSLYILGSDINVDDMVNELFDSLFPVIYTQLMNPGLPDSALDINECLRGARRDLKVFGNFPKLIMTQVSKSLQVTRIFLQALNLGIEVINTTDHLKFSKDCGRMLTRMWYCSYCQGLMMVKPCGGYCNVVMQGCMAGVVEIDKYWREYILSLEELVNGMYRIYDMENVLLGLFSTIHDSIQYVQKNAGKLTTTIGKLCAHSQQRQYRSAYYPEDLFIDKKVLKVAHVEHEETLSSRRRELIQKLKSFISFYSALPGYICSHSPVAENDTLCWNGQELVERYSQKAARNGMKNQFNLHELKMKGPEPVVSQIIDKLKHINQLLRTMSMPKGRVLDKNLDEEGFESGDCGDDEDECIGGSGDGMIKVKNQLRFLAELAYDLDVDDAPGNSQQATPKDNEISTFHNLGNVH
binder,measurement,value
"抗体GPC3-6 (antibody, human IgG1, lambda, V domains shown, Selected from a phage display antibody library against GPC3; In SPR it was captured through goat anti-human Fc gamma; also called 人抗GPC3抗体GPC3-6; 抗GPC3抗体) VH: QVHLVQSGAEVQKPGSSVKVSCKASGGTFSSYGINWVRQAPGQGLEWMGWISAYNGNTNYAQKLQGRVTMTTDTSTSTAYMELRSLRSDDTAVYYCARGSGLLPRIGGYWGKGTMVTVSS VL: LSSELTQDPAVSVPLGQTVRITCRGDSLRTFYATWYQQKPGQAPVRVIYRKNNRPSGIPDRFSGSSSGNTASLTITGAQAEDEADYYCNSRDSSGDHLVFGTGTKLTVLG",Kd,3.77 nM
same,koff,0.000719 s⁻¹
same,kon,190000 M⁻¹ s⁻¹
